# In patent publication US20190367628A1 (Novartis, published 2019):
# Residue numbers refer to the chain shown, from its start.
# T1: human BCMA (antigen of the surface plasmon resonance measurement of PI-61) (human, UniProt Q02223 1-54, limits assumed)
# T1 construct: Construct used in the SPR experiment is not described
# T1 sequence (looked up): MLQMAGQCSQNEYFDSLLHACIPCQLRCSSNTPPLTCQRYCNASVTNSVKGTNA
# T2: Human BCMA-His-APP-Avi (human, biotinylated (captured on streptavidin plate; site not stated))
# T2 construct: also called His-APP-Avi-tagged human BCMA
# T2 chain: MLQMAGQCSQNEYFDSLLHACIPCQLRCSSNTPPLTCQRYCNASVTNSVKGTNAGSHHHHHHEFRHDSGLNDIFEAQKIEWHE
# T3: recombinant human BCMA (human, UniProt Q02223 1-54, limits assumed)
# T3 construct: The SET method says only 'recombinant human BCMA'; also called hBCMA; TNFRSF17
# T3 sequence (looked up): T1 sequence (looked up)
# B1: PI-61 antibody (as measured by surface plasmon resonance) (antibody, V domains shown)
# VH: QVQLQESGGGVVQPGRSLRLSCAASGFTFSSYGMHWVRQAPGKGLEWVAVISYDGSNKYYADSVKGRFTISRDNSKNTLYLQMNSLRAEDTAVYYCGGSGYALHDDYYGLDVWGQGTLVTVSS
# VL: QSALTQPASVSGSPGQSITISCTGTSSDVGGYNYVSWYQQHPGKAPKLMIYDVSNRPSGVSNRFSGSKSGNTASLTISGLQAEDEADYYCSSYTSSSTLYVFGSGTKVTVL
# notes: also called parental clone
# B2: PI-61 (monoclonal phage clone) (other)
# VH: B1 VH
# VL: B1 VL
# B3: BCMA-CD3 bispecific antibody AB3 (bispecific antibody)
# chain 1: not shown
# chain 2: QSALTQPASVSGSPGQSITISCTGTSSDVGGYNYVSWYQQHPGKAPKLMIYDVSNRLRGVSNRFSGSKSGNTASLTISGLQAEDEADYYCSSYTSSSALYVFGSGTKVTVLGQPKAAPSVTLFPPSSEELQANKATLVCLISDFYPGAVTVAWKADSSPVKAGVETTTPSKQSNNKYAASSYLSLTPEQWKSHRSYSCQVTHEGSTVEKTVAPTECS
# chain 3: not shown
# B4: H2/L2-36 scFv (scFv)
# scFv: QAQLQSSGGGVVQPGRSLRLSCAASGFTFSSYGMHWVRQAPGKGLEWVAVISYKGSNKYYADSVKGRFTISRDNSKNTLYLQMNSLRAEDTAVYYCGGSGYALHDDYYGLDVWGQGTLVTVSSSGGGGSGGGGSGGGGSGGGGSQSALTQPASVSGSPGQSITISCTGTSSDVGGYNYVSWYQQHPGKAPKLMIYEVSNRLRGVSNRFSGSKFGNTASLTISGLQAEDEADYYCSSYTSSSTLYVFGSGTKVTVL
# B5: H2/L2-20 scFv (scFv)
# scFv: B4 scFv with F29V, K54T, E196D, T242A
# B6: H2/L2-80 scFv (scFv)
# scFv: B4 scFv with A2V, K54T, E196D, L201A, R202W, T242A
# B7: H2/L2-47 scFv (scFv)
# scFv: B4 scFv with A2V, G8E, E196D, L201P, R202W
# B8: H2/L2-68 scFv (scFv)
# scFv: B4 scFv with G8E, K54R, S56F, L110Q, E196D, R202S
# B9: H2/L2-34 scFv (scFv)
# scFv: QVQLQDSEGGVVQPGRSLRLSCAASGFTFSSYGMHWVRQAPGKGLEWVAVISYTGTKKYYADSVKGRFTISRDNSKNTLYLQMNSLRAEDTAVYYCGGSGYALHDDYYGLDVWGQGTLVTVSSSGGGGSGGGGSGGGGSGGGGSQSALTQPASVSGSPGQSITISCTGTSSDVGGYNYVSWYQQHPGKAPKLMIYDVSNRPWGVSNRFSGSKFGNTASLTISGLQAEDEADYYCSSYTSSSALYVFGSGTKVTVM
# B10: H2/L2-83 scFv (scFv)
# scFv: B4 scFv with S6G
# B11: H2/L2-88 scFv (scFv)
# scFv: B4 scFv with A2V, G8E, T242A
# B12: H2/L2-18 scFv (scFv)
# scFv: B4 scFv with S6G, N57H, E196D, L201P, R202W
# Target: T1, human BCMA (antigen of the surface …)
# Test: surface plasmon resonance
row,Binder,Kd
1,B1,~34 nM

# Target: T4, cynomolgus BCMA (antigen of the surface plasmon resonance measurement of PI-61) (cynomolgus, UniProt A0A2K5UD97 1-53)
# T4 construct: Construct used in the SPR experiment is not described; also called cyno BCMA; not shown: The carrier or tag of the soluble cyno BCMA used in SPR
# T4 sequence (A0A2K5UD97 entry or part of it limits assumed): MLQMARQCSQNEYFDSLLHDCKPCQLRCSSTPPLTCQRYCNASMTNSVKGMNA
# Test: surface plasmon resonance
row,Binder,Kd
1,B1,~240 nM

# Target: T2, Human BCMA-His-APP-Avi
# Test: monoclonal phage ELISA, anti-M13-HRP, Abs450 against fold dilution of phage
row,Binder,binding result
1,B2,binds

# Target: T3, recombinant human BCMA
# Test: solution equilibrium titration (SET, MSD); apparent KD; bispecific at a fixed concentration, BCMA titrated in solution
row,Binder,Kd
1,B3,0.0615 nM

# Target: T5, recombinant cynomolgus monkey BCMA (cynomolgus monkey, UniProt A0A2K5UD97 1-53)
# T5 construct: The SET method says only 'recombinant cynomolgus monkey BCMA'; also called Cyno BCMA; cynoBCMA
# Test: as above
row,Binder,Kd
1,B3,0.105 nM

# Target: T6, Cyno BCMA APP-Avi (cynomolgus, biotinylated (site not stated))
# T6 construct: It was used as soluble biotinylated antigen; also called biotinylated cyno BCMA
# T6 sequence (chain, as listed by the source limits assumed): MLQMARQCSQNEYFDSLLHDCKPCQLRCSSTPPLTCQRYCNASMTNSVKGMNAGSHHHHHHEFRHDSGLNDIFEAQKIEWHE
# Test: flow cytometry of single yeast clone displaying the scFv, labelled with 20 nM biotinylated cyno BCMA, streptavidin/neutravidin-DyLight 633 detection
# Procedure: (§1) For the fourth round of screening, yeast from the third round output were pelleted, washed, and resuspended in 200 mL SD-ura broth with 1% raffinose, 2% galactose, and incubated for 22 hours at 20° C. to induce expression. […] The first sample was incubated with human BCMA for 45 min at room temperature, pelleted, washed twice with PBSF, and then resuspended in 1 mL PBSF (PBS with 0.1% BSA). The second sample was incubated with human BCMA for 45 minutes at room temperature. Both samples were pelleted, washed twice with PBSF, and resuspended in 200 uL of PBSF+a 1:30 dilution of rabbit anti-cMyc-FITC (Abcam)+a 1:100 dilution of neutravidin-dylight 633 (Invitrogen). Samples were incubated at 4 C for 30 min, pelleted, washed twice with PBSF, resuspended in 3 mL PBSF, filtered through 40 um filters, then sorted using flow cytometry on a FACS Aria cell sorter (Becton Dickinson Biosciences, San Jose, Calif.). Approximately 5×10⁵ yeast were isolated and resuspended in 4 mL SD-ura broth with 2% glucose and grown overnight at 30° C.
# (§2) Each sample plate was used to create three test plates for flow cytometric analysis. […] Labeling was essentially as above for sorting, except using 1:200 each streptavidin-dylight 633 (Invitrogen) and neutravidin-dylight 633 (Invitrogen) in PBSF as secondary reagent and excluding any anti-cMyc antibody. The test plates were analyzed on a Cytoflex flow cytometer (Beckman Coulter, Brea, Calif.)
row,Binder,MFI
1,B4,6430 MFI
2,B5,20700 MFI
3,B6,17900 MFI
4,B7,14200 MFI
5,B8,16200 MFI
6,B9,10400 MFI
7,B10,10700 MFI
8,B11,4480 MFI
9,B12,19900 MFI

# Target: T6, Cyno BCMA APP-Avi
# Test: flow cytometry of single yeast clone displaying the scFv, labelled with 900 pM biotinylated cyno BCMA, streptavidin/neutravidin-DyLight 633 detection
# Procedure: as §1, §2
row,Binder,MFI
1,B4,5590 MFI
2,B5,7030 MFI
3,B6,6540 MFI
4,B7,5930 MFI
5,B8,7380 MFI
6,B9,6050 MFI
7,B10,4880 MFI
8,B11,6440 MFI
9,B12,7180 MFI
